Drawing on the supplement of paper PMC10126150, this text covers switch fluorescence ratio for 120 sequences.

± gives the standard deviation of the averaged measurements.

The series relates to ATP. Kind of series: switch fluorescence ratio, 500 uM ATP over buffer (Cy3 cluster intensity, sum of 5 cycles each) (fold (ratio)); higher = stronger signal-on switching upon ATP binding; sequences stand for … in TCGTCGGCAGCGTCAGATGTGTATAAGAGACAGTTTTTTTTTTTTTTTTTTTTTTTTT…TC. Particulars: aptamer strand: ATP DNA aptamer (quencher-CACCTGGGGGAGTATTGCGGAGGAAGG + anchor), 100 nM annealed; ATP concentration: 500 uM. The method in brief: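 Clusters carrying Cy3-labelled switching strands on a modified Illumina MiSeq flow-cell were annealed to 100 nM quencher-labelled ATP aptamer and imaged in selection buffer. They were imaged again after 15 min with 500 uM ATP at 22 °C, over five buffer/ATP cycles with NaOH stripping and re-annealing in between. For each cluster, the fluorescence ratio is the summed Cy3 intensity of the target cycles divided by that of the buffer cycles, averaged per switch-domain sequence. Clusters outside 100-1000 RFU were left out.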
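Further: ATP exposure 15 min at 22 °C before imaging.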

Turning to AGATGGCGCT, the switch fluorescence ratio is 0.967 ± 0.029.
In the case of TTTCGTCATG it was 1.03 ± 0.065; in that of TCCTTTAAAT, 1.13 ± 0.0032.
As for ATTGGAGGGC, the switch fluorescence ratio stood at 0.96 ± 0.038.
Regarding GGGGATAAAA, the switch fluorescence ratio turned out to be 1.01 ± 0.034.
Next, GATGAGGGTA: 0.976 ± 0.034.
As for TCCAGAAGTT, the switch fluorescence ratio was 1.07 ± 0.057.
In the case of ACTTGTAAAC, the switch fluorescence ratio is 1.01 ± 0.025.
Next, TGGTAAAAAG: 1.025 ± 0.0047; TTTTCAAACC: 0.9953 ± 0.0034; ACTCAGGTGT: 3.23 ± 0.13.
In the case of ACATTGTTAT it was 1.07 ± 0.1.
Next, GTTATAAAAA: 1.01 ± 0.07; TATACTATTG: 1.01 ± 0.048; GTTTTTGCTG: 0.976 ± 0.024.
For TATTTAGCGT, the switch fluorescence ratio turned out to be 1.01 ± 0.067.
In the case of ACCGGGCTTT it was 0.988 ± 0.024; in that of GGAATTTGGC, 1.02 ± 0.052.
Next, ACTGAATTTG: 1.02 ± 0.053; TACATATCTT: 1.01 ± 0.025.
In the case of GAGAATGGGG it was 0.983 ± 0.024.
Regarding AGGGATACCT, the switch fluorescence ratio amounted to 1.04 ± 0.018.
In the case of ACGTATTTTC it was 1.171 ± 0.0024; in that of ATAGATGAGG, 1.007 ± 0.0046; in that of AAGATTTGTT, 0.978 ± 0.021.
In the case of GACCTTTCGT it was 1.1 ± 0.069; in that of ATGCCGGGGT, 1.05 ± 0.013.
In the case of AAATGGGACC it was 1.012 ± 0.0042; in that of AAGATCAGGC, 0.9735 ± 0.0023; in that of TACGGGGTCT, 1.04 ± 0.037.
Turning to GAGTAAGTTT, the switch fluorescence ratio turned out to be 1.012 ± 0.0081.
In the case of TTCGTTTTGC it was 0.999 ± 0.035; in that of AATTTATGGG, 0.986 ± 0.021; in that of GCGTTTTTTG, 0.9912 ± 0.0054.
In the case of GCTCCAGGTA it was 1.577 ± 0.0021; in that of TTTCTCGTAA, 1.58 ± 0.55.
Take ACAAGGCCTT: the switch fluorescence ratio was 0.993 ± 0.031.
In the case of ATGTCCACTT it was 1 ± 0.036; in that of CTAAGCTTTG, 1 ± 0.035; in that of TCAGAAATGT, 1.01 ± 0.021.
Next, ATATTAGAAC: 1.01 ± 0.0027.
Next, CGTGTTGGAG: 0.969 ± 0.011; TTCGGGAGGG: 0.973 ± 0.029.
Consider ATGAGGGGGA, for which the switch fluorescence ratio turned out to be 0.997 ± 0.026.
Next, TGCATTTAGG: 1.02 ± 0.032; ACTGGGGGGA: 1.02 ± 0.04; TGAGTGCCGG: 1.18 ± 0.25.
As to GCGGGGGACC, the switch fluorescence ratio was 1.011 ± 0.0051.
For the sequence TGGTTGTTTT, the switch fluorescence ratio was 0.99 ± 0.018.
Regarding GAGATATTGT, the switch fluorescence ratio was 1.03 ± 0.038.
In the case of TTTGGGTGCA it was 0.987 ± 0.038.
In the case of GGGGTCGTGT it was 0.992 ± 0.023; in that of TGGGGTTTAG, 0.99 ± 0.024.
For GGGGACTAGG, the switch fluorescence ratio amounted to 0.982 ± 0.058.
Next, TTTTTCGGGA: 1 ± 0.023; GAGTAAGGGT: 0.99 ± 0.024.
In the case of GAGTTGAGAT it was 0.9871 ± 0.007.
Consider TTCGTGACCC, for which the switch fluorescence ratio worked out at 1.019 ± 0.0043.
In the case of CTATTTTGGG it was 0.993 ± 0.026.
Next, TTTTTCCGCG: 1.128 ± 0.0084; GGTTCAAGTT: 0.9816 ± 0.0095; CCAGGGTATA: 1.03 ± 0.032.
Take GCGCGTTAGC: the switch fluorescence ratio was determined as 1.007 ± 0.0014.
In the case of CAAGTATGAG it was 0.9829 ± 0.0065; in that of TCCGGTTCCT, 1.07 ± 0.036; in that of ATAATTAGTA, 0.9455 ± 0.0079.
Take GTGATAAATG: the switch fluorescence ratio was found to be 0.956 ± 0.021.
Next, CTAGTGGTGA: 0.972 ± 0.015; GGGAGGCTCG: 1 ± 0.0082; TCTAAATAGC: 1.05 ± 0.038.
In the case of CGTGTTGGAC it was 1.016 ± 0.0032.
In the case of GCTTGATGAA it was 1.034 ± 0.0013; in that of TGGATTTGCA, 1.03 ± 0.022.
Turning to GGGGGTAGGT, the switch fluorescence ratio came to 0.985 ± 0.036.
In the case of GTAAGATTAT it was 0.985 ± 0.067; in that of TGAGTCATAC, 1.05 ± 0.033.
In the case of GGCGTACTTG it was 1.01 ± 0.012.
Next, GATTTATTTT: 0.994 ± 0.017.
For the sequence GCGTTAATAA, the switch fluorescence ratio was 1.06 ± 0.038.
Next, TTGGCGGGTG: 1.04 ± 0.041.
In the case of GCTTTTTGTA it was 0.981 ± 0.032; in that of ATAAGGTTGT, 0.977 ± 0.025.
Next, AGTGGAGGGC: 1.03 ± 0.036.
In the case of ACTAAGGGGT, the switch fluorescence ratio was 1.05 ± 0.016.
In the case of AGAGGAGGCA it was 0.9727 ± 0.0085; in that of AGCGCTTGTG, 1.02 ± 0.038.
Next, ATAAGGTCTA: 0.971 ± 0.015; ACTGTAATGT: 1.13 ± 0.011; GCACTTTTTG: 0.99 ± 0.049.
Next, TCACGTTTTT: 1.01 ± 0.031; GCGGGGCCAT: 1.02 ± 0.028; GTTGTGAATA: 0.994 ± 0.028.
On to TCATGTTAAA, for which the switch fluorescence ratio was determined as 0.98647 ± 0.0005.
In the case of TAAGGGGGTG it was 1.01 ± 0.023.
In the case of ACATTGAGGG it was 1.057 ± 0.0028; in that of TTGGGGTGGG, 1.01 ± 0.046.
In the case of TGGGGGGTAT it was 1 ± 0.03.
GAGAGTTAAA: the switch fluorescence ratio worked out at 0.976 ± 0.015.
Next, GGGTTGGCTA: 0.964 ± 0.047; ATACGATTGG: 0.9674 ± 0.0044; ATGACTGATA: 1.028 ± 0.0038.
Next, GCAGAGTGGA: 0.9976 ± 0.003.
In the case of AGGGGGCATT it was 0.98 ± 0.011; in that of GGGTGGGTGG, 0.989 ± 0.017.
TTCTTAAAAG: the switch fluorescence ratio came to 1.02 ± 0.028.
With AGTGAGCTTG, the switch fluorescence ratio came to 0.9818 ± 0.0038.
On to TAGCGGGATT, for which the switch fluorescence ratio is 1.02 ± 0.033.
In the case of CTTTGGGGAT it was 1.05 ± 0.12; in that of AGATTGGACG, 1.02 ± 0.024; in that of GCACGGGGAT, 1.02 ± 0.033.
Next, ATGTACGCGT: 0.995 ± 0.024; GTAATGGGGG: 1.09 ± 0.071.
Next, AAGGGGGGAC: 1.04 ± 0.07; GTTATTATTG: 1.02 ± 0.013.
For TGACGGTGTG, the switch fluorescence ratio amounted to 0.973 ± 0.02.
In the case of TGGTGAGGGT it was 0.999 ± 0.025.
Next, GGGGTCGGGA: 0.999 ± 0.011.
Next, AGCAGCTGGG: 1.01 ± 0.012.
In the case of ACTAGGGCAG, the switch fluorescence ratio came out at 1.035 ± 0.005.
In the case of AGGAGGGTAA it was 1.024 ± 0.0031.
